Experimental data taken from US20240270821A1, “GIP/GLP1/GCG TRI-RECEPTOR AGONISTS AND USES THEREOF” (priority 2023, published 2024).
Starred links: 1 amine or outer side, 2 acyl side, 3 side chain; linkers in the order of their positions; H or OH if unused. Non-standard residues stand in square brackets, D forms with d. Groups on a side chain read outwards from the residue. No end group written: not given here. *: point of attachment. C20 diacid = O=C(O)CCCCCCCCCCCCCCCCCCC(=O)*; C18 diacid = O=C(O)CCCCCCCCCCCCCCCCC(=O)*; Phe(4-CN) = N#Cc1ccc(C[C@H](N)C(=O)O)cc1; αMePhe(2-F) = C[C@](N)(Cc1ccccc1F)C(=O)O; γGlu = O=C(O)[C@H](CCC(=O)[*:2])N[*:1]; αMeF = C[C@](N)(Cc1ccccc1)C(=O)O; αMeL = CC(C)C[C@](C)(N)C(=O)O; Orn = NCCC[C@H](N)C(=O)O; AEEA = NCCOCCOCC(=O)O; Aib = CC(C)(N)C(=O)O

What was measured:
Test in all cases: cell-based or functional assay
[1] = molecular target: Pro-Link-tagged Human GLP-1R (human) (UniProt P43220)
Chain of Pro-Link-tagged Human GLP-1R (human) (P43220 24-463): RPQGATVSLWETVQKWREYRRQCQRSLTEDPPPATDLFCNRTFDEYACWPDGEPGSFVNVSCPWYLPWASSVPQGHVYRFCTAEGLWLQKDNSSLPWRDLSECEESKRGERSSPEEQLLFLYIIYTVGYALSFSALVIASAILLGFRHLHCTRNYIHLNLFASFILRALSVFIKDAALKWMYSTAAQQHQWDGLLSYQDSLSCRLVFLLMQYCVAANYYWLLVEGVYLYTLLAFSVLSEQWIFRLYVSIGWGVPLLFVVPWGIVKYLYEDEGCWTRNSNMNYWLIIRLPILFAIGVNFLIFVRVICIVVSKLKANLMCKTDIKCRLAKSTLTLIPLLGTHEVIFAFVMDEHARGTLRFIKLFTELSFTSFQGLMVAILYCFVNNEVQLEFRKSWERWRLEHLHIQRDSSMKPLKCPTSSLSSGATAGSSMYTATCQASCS

hGLP-1R = hGLP-1R (Homo sapiens, UniProt P43220)
Chain of hGLP-1R (P43220 24-463): as above

[2] = molecular target: T1, human GIP receptor (human) (UniProt P48546)
T1 sequence (looked up): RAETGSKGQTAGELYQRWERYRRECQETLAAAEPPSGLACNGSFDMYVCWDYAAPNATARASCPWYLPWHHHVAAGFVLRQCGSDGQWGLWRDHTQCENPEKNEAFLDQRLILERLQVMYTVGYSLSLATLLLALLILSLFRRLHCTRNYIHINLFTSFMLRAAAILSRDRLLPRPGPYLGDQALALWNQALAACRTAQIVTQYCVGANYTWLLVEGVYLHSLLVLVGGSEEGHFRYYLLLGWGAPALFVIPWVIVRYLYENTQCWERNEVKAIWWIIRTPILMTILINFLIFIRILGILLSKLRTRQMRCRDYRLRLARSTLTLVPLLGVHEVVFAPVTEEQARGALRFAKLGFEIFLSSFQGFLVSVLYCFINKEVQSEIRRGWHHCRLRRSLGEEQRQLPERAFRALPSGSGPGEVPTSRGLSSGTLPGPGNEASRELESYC

[3] = molecular target: human GLP-1R (SNAP-GLP-1R expressed in HEK293 cells) (human) (UniProt P43220)
Chain of human GLP-1R (SNAP-GLP-1R expressed in HEK293 cells) (human) (P43220 24-463): as the sequence (P43220 24-463) above

[4] = molecular target: human glucagon receptor (human) (UniProt P47871)
Chain of human glucagon receptor (human) (P47871 26-477): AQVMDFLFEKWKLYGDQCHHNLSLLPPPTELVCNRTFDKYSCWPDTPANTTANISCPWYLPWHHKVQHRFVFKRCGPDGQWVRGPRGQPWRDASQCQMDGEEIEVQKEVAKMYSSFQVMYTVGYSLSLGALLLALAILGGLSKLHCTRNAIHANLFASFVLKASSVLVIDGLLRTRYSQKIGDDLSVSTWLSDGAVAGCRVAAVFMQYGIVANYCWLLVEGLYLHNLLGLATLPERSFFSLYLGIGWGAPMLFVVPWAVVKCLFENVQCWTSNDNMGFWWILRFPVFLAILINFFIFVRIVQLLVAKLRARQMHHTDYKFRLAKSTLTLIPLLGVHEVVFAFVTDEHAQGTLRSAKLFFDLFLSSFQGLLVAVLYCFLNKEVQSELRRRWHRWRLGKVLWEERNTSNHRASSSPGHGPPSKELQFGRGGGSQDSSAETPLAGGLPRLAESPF

[5] = molecular target: human GLP1-R (SNAP-GLP-1R expressed in HEK293 cells) (human) (UniProt P43220)
Chain of human GLP1-R (SNAP-GLP-1R expressed in HEK293 cells) (human) (P43220 24-463): as the sequence (P43220 24-463) above

Binder	% Stimulation Max [1]	hGLP1R β-arrestin Rel EC50 [1]	Relative cAMP EC50 (hGLP-1R)	cAMP Rel EC50 (1% HSA) (hGLP-1R)	Relative cAMP EC50 [2]	cAMP Rel EC50 (1% HSA) [2]	GLP1R Internalization EC50 [3]	Internalization % TOP [3]	Relative cAMP EC50 [4]	cAMP Rel EC50 (1% HSA) [4]	cAMP Rel EC50 (in the presence of 1% HSA) (hGLP-1R)	cAMP Rel EC50 (in the presence of 1% HSA) [2]	GLP1R Internalization EC50 [5]	Internalization % TOP [5]	cAMP Rel EC50 (in the presence of 1% HSA) [4]
Y[Aib]QGTFTSDYSI[αMeL]LDKQAAKQFVEWLLA[Aib]GPSSGEPPPSEG (not fully specified (residue 20)) [Example 329]	74.5%	0.00611 µM	0.926 nM	204 nM	0.207 nM	42.6 nM	34 nM	91.1%	3.47 nM	842 nM					
YXQGTFTSDFSKXLDKKAQXAFIEYLLAGGPSSGEPPPSEG (synthetic construct; SITE 2: note = 2-Aminoisobutyric Acid; SITE 13: note = alpha-methyl-leucine; SITE 17: note = Lysine is chemically modified through conjugation of the epsilon-amino group of the Lysine side chain with (2-[2-(2-Amino-ethoxy)-ethoxy]-acetyl)-(gamma-Glu)-CO-(CH2) 18-CO2H; SITE 20: n) [Example 1]	17.3%	> 10 µM	1.42 nM		0.207 nM				3.72 nM		524 nM	73.9 nM	44.7 nM	69.1%	1690 nM
YXQGTFTSDFSIXLDKKAQXAFIEYLLEGGPSSGEPPPSEG (non-natural residues; acylated Lys; C-terminal amide; synthetic construct; SITE 2: note = 2-Aminoisobutyric Acid; SITE 13: note = alpha-methyl-leucine; SITE 17: note = Lysine is chemically modified through conjugation of the epsilon-amino group of the Lysine side chain with (2-[2-(2-Amino-ethoxy)-ethoxy]-acetyl)-(gamma-Glu)-CO-(CH2) 18-CO2H; SITE 20: n) [Example 288]	18%	0.0163 µM	1.89 nM		0.234 nM		30.3 nM	72.4%	5.17 nM		616 nM	59.1 nM			3580 nM
Y[Aib]QGTFTSDYSI[αMeL]LDKK([AEEA-γGlu-C20 diacid])AQRAFIEYLLEGGPSSGEPPPSEG-NH2 [Example 289]	47.5%	0.00596 µM	0.449 nM		0.382 nM		10.9 nM	86.5%	5.02 nM		139 nM	105 nM			1750 nM
Y[Aib]QGT[αMePhe(2-F)]TSDYSKLLDKIAQK([AEEA-γGlu-C20 diacid])AFIEYLLEGGPSSGEPPPSEG-NH2 [Example 295]	44.1%	0.0164 µM	0.831 nM		0.126 nM		31.4 nM	88.4%	2.15 nM		232 nM	61.1 nM			605 nM
Y[Aib]QGT[αMePhe(2-F)]TSDYSILLDKIAAK([AEEA-γGlu-C20 diacid])AFIEYLIEGGPSSGEPPPSEG-NH2 [Example 296]	55.2%	0.014 µM	0.536 nM		0.0806 nM		19.2 nM	87.2%	1.72 nM		171 nM	21.8 nM			517 nM
Y[Aib]QGTFTSDYSI[αMeL]LDKQAAKAFVEWLLAGGPSSGEPPPSEG-NH2 (not fully specified (residue 20)) [Example 305]	58.3%	0.0233 µM	1.48 nM	415 nM	1 nM	92.4 nM			6.73 nM	1500 nM					
Y[Aib]QGT[αMeF]TSDYSILLDKIAAKNFIEYLVEGGPSSGEPPPSEG-NH2 (not fully specified (residue 20)) [Example 307]	70.8%	0.00986 µM	0.836 nM	209 nM	0.446 nM	65.3 nM			1.68 nM	1880 nM					
Y[Aib]QGTFTSDYSI[αMeL]LDKIAAK([AEEA-AEEA-γGlu-C20 diacid])[Orn]FVQYLIAGGPSSGEPPPSEG-NH2 [Example 308]	41.4%	0.0169 µM	3.15 nM	477 nM		237 nM			14.2 nM	4950 nM					
Y[Aib]QGT[αMePhe(2-F)]TSDYSKLLDKQAQK([AEEA-γGlu-C20 diacid])QFIEYLIEGGPSSGEPPPSEG-NH2 [Example 309]	47.2%	0.00672 µM	0.808 nM	251 nM	0.32 nM	424 nM			9.28 nM	3910 nM					
Y[Aib]QGT[αMePhe(2-F)]TSDYSKILDKIAQK([AEEA-γGlu-C20 diacid])AFIEYLLEGGPSSGEPPPSEG-NH2 [Example 311]	39.6%	0.0192 µM	3.36 nM	1080 nM	0.113 nM	26.1 nM			2.08 nM	2500 nM					
Y[Aib]QGTFTSDYSK[αMeL]LDKK([AEEA-γGlu-C20 diacid])AQQAFVQWLIEGGPSSGEPPPSEG-NH2 [Example 315]	29.7%	0.00376 µM	0.508 nM	140 nM	0.398 nM	85.1 nM			4.05 nM	1560 nM					
Y[Aib]QGT[αMePhe(2-F)]TSD[Phe(4-CN)]SILLDKQAQK([AEEA-AEEA-γGlu-C20 diacid])AFIEYLLEGGPSSGEPPPSEG-NH2 [Example 321]	90.1%	0.00878 µM	0.798 nM	110 nM	0.0912 nM	13 nM	27.1 nM	92.8%	4.49 nM	836 nM					
Y[Aib]QGTFTSDYSI[αMeL]LDKIAAK([AEEA-AEEA-γGlu-C20 diacid])QFVQWLIE[Aib]GPSSGEPPPSEG-NH2 [Example 323]	44%	0.0108 µM	1.56 nM	293 nM	0.232 nM	37.7 nM	28.2 nM	84.8%	6.04 nM	1440 nM					
